The binders below were run against T1, HLA-A*02:01 (peptide-receptive MHC class I monomer after UV cleavage of the UV-sensitive ligand) (human) (assay: UV ligand-exchange ELISA; exchange yield grade (+ >=10%, ++ >=20%, +++ >=50%, ++++ >=75%)).
T1 construct: MHC monomers loaded by UV-ligand exchange and captured on streptavidin plates
Procedure, shortened: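 Exchange yield is an ELISA read-out: complexes diluted 100-fold, captured on streptavidin plates, detected with HRP anti-β2m and TMB at 450 nm. Standard curve from refolded HLA-A*02:01/MLA-001 (15-500 ng/ml); complexes made by UV-triggered displacement of a photolabile ligand by test peptide.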

Row | Binder | peptide exchange yield [%]
1 | LLNFSPGNL [LLNFSPGNL (SEQ ID NO: 97)] | 10 to 20
2 | LLFDLIPVVSV [LLFDLIPVVSV (SEQ ID NO: 95)] | 50 to 75
3 | QLYDGATALFL [QLYDGATALFL (SEQ ID NO: 99)] | 20 to 50
4 | MLQDGIARL [MLQDGIARL (SEQ ID NO: 98)] | 50 to 75
5 | RLIRTIAAI [RLIRTIAAI (SEQ ID NO: 100)] | 50 to 75
6 | LLLNENESLFL [LLLNENESLFL (SEQ ID NO: 96)] | 50 to 75

— patent US20170296640A1 (IMMATICS BIOTECHNOLOGIES, published 2017)
